Experimental data reported in PMC12304850, “Interfacing B‐DNA and DNA Mimic Foldamers”.

Experiments:
[1] = target: PU.1 (UniProt P17947 165-270); assay: BLI; BLI on streptavidin biosensors; buffer with NaCl (concentration not in material), 0.01 mM EDTA, 0.05% Tween 20; pH and temperature not in material
[2] = target: T1, SAP1 (UniProt P28324 1-93); assay: as above; conditions: protein: recombinant, label: biotin
T1 sequence: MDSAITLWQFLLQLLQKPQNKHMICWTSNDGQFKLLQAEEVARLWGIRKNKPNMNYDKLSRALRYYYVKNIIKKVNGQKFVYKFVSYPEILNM

B1: 27 (dsDNA)
DNA 1: GACAGCATGTG
DNA 2: CACATGCTGTC
Kd [1]: 1600 nM | binding result ([2]; duplex): no binding

B2: 26 (dsDNA)
DNA 1: GACAGGATGTG
DNA 2: CACATCCTGTC
Kd [1]: 330 nM | Kd ([2]; 11-bp duplex, hybridized on immobilized ssDNA): 1080 ± 6 nM
